Reference: paper PMC2225407

What follows are sequences tested against MBP::FAX-1 (Caenorhabditis elegans) (UniProt G5EDJ0) (assay: EMSA). Details: EMSA: 1.5 ug MBP::FAX-1, 4 ng 32P ds oligo, BSA, 30 min pre-incubation + 30 min on ice, 8% native PAGE; binding buffer salt and pH not given.
Chain of UniProt G5EDJ0 (G5EDJ0 whole entry): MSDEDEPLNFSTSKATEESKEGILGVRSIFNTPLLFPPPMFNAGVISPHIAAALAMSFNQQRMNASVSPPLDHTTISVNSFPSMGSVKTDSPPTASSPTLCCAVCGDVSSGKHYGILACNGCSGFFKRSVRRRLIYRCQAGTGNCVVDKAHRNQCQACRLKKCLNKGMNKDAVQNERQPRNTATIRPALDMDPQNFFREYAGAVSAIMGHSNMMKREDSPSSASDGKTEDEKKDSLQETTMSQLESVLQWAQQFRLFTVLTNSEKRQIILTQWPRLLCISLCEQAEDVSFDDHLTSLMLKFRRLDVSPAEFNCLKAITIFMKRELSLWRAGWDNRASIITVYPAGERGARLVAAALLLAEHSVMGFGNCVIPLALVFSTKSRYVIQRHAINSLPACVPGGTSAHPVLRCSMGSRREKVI
“AATTACCCTTTTAAAATTTAAAAGTCAACTTCCAA / TCGATTGGAAGTTGACTTTTAAATTTTAAAAGGGT [MON2]” showed a binding signal (% probe bound) of 4.5.
“AATTACCCTTTTAAAATTCAAAAGTCAACTTCCAA / TCGATTGGAAGTTGACTTTTGAATTTTAAAAGGGT [HRWS]” was tested, and the binding signal (% probe bound) was 10.5.
For “AATTACCCTTTTAAAATTCAAAATTCAACTTCCAA / TCGATTGGAAGTTGAATTTTGAATTTTAAAAGGGT [DRNC]”, the binding signal (% probe bound) was 0.4.
“AATTACCCTTTTAAATGTCAAATGTCAACTTCCAA / TCGATTGGAAGTTGACATTTGACATTTAAAAGGGT [DR1T]” showed a binding signal (% probe bound) of 29.8.
Sequence “AATTACCCTTTTAAAAGTCAAAATTTAACTTCCAA / TCGATTGGAAGTTAAATTTTGACTTTTAAAAGGGT [MON1]” has a binding signal (% probe bound) of 2.8.
Work on “AATTACCCTTTTAAAAGTCAAAATTCAACTTCCAA / TCGATTGGAAGTTGAATTTTGACTTTTAAAAGGGT [HRSW]” yielded a binding signal (% probe bound) of 11.7.
For “AATTACCCTTTTAAAAGTCAAAAGTCAACTTCCAA / TCGATTGGAAGTTGACTTTTGACTTTTAAAAGGGT [DR1A]”, the binding signal (% probe bound) was 53.3.
“AATTACCCTTTTAAACGTCAAACGTCAACTTCCAA / TCGATTGGAAGTTGACGTTTGACGTTTAAAAGGGT [DR1C]” showed a binding signal (% probe bound) of 26.1.

Same assay, conditions: supershift with anti-FAX-1 shown; EMSA: 1.5 ug MBP::FAX-1, 4 ng 32P ds oligo, BSA, 30 min pre-incubation + 30 min on ice, 8% native PAGE; binding buffer salt and pH not given
With “AATTACCCTTTTAAAGGTCAAAGGTCAACTTCCAA / TCGATTGGAAGTTGACCTTTGACCTTTAAAAGGGT [DR1G]” the binding signal (% probe bound) was 42.1.
